Activity data for one sequence are collected here from patent US20190167815.

One data set deals with SBS#75114 (synthetic). In words: cell_activity. Particulars: KRAB fusion mRNA, C9 line, isoform-specific RT-qPCR.
A further data set deals with SBS#75115 (synthetic). In words: cell_activity. The conditions noted are these: KRAB fusion mRNA, C9 line, isoform-specific RT-qPCR; microarray: only C9orf72 repressed.

Consider “CACGCCCCGGCCCCGGCCCCGGCCCCTA (double strand) [C9orf72 reverse site, frame i]”, for which the activity in the data set with SBS#75114 (synthetic) and in the data set with SBS#75115 (synthetic) was greater than 70 % repression in each case.
